From the RNAGym collection of RNA variant scans (doi:10.7554/elife.90254)

B1: LINE1-full (parent)
chain: UACGUAGGUGGUUUUCCCCUGAUAGUGCUAAGGGGGCCUGGAAGUUUGGACUGGGCAGAGCUCAACACAGCGUGGCAAAGUGGCUGUGGCUAGACUGCCUCUCUGGAUUCCUCGUCACUCAGCAGGGCAUCUCUGAGAGAAAUGCC

Variants of: B1
Assay: self-cleavage, relative activity (ratio to wild type); higher = more cleavage; in vitro, sequencing; the parent is a self-cleaving ribozyme

Variant | self-cleavage
A69G C145A | 0.71
C17G U108C | 0.81
G32C U81C | 0.55
U52C G80A | 1.82
A42U U109C | 0.71
U26C U102A | 1.31
U14A A65G | 0.06
A67U C99A | 0
U46C G58U | 0.05
A24G U39G | 0.76
U45C A142G | 1.26
U73C C145A | 1.44
C66U U104C | 0.05
U91C C110G | 0.58
A121U A140C | 1.09
U26C G125U | 0.92
A117U C146G | 0.92
A79G A124G | 0.62
G97A U108C | 0.17
U52A G144A | 1.44
U62A G86A | 0.05

Variant | self-cleavage
G4A A77G | 1.68
C118U C145U | 0.86
U47A U108C | 1.22
A124U U143C | 1.26
C56U U85C | 0.07
A30C U81C | 0.92
U9A U119C | 1.04
A64U A94G | 0.09
U81C C146A | 1.8
A22U G106U | 1.72
G32A C84U | 0.21
A124G U130C | 1.58
U14C A22G | 0.99
U45A U52C | 1.46
U14C G114A | 1.06
U62C C145U | 0
G4A G21A | 0.76
G36C U104C | 1.87
A59G U112A | 0.09
A79C U119A | 1.01
U12C U14C | 1.12

Variant | self-cleavage
G32U A50G | 0.69
G106A U119A | 0.75
U115C A141G | 1.76
U15C G41U | 0.57
U1A U26C | 1.93
G35A G86A | 0.05
A64G A141U | 0.17
A59U C63A | 0.02
U9C A129U | 1.27
U39A A69U | 0.04
A22G U104A | 1.38
A2G U12C | 0.96
A124U A138G | 1.79
U39C U73G | 1.08
G75A U132A | 1.15
A22U U115C | 1.77
U29A A59G | 0.16
A6G A22G | 1.19
A30G C90U | 0.07
U15G A65G | 0.1
A57U A94U | 0.04

Variant | self-cleavage
G74A U87A | 0.07
A50G A59U | 0.84
G49U | 0.94
U12C C56A | 0.01
U1G A42U | 0.28
G25U U119C | 1.74
A67C A69G | 0
U14C A30U | 1.11
G35U U134C | 1.12
U23C A31U | 0.77
U29A A67G | 0.67
U96A C103A | 0.06
C110A U130C | 1.04
C37A | 1.04
A64G C116A | 0.1
G40A A57U | 0.05
C38A A140G | 1.28
U14C A42U | 1.02
A30U U47C | 1.07
U13A A129G | 1.2
A124C A140G | 1.88
